In US20230083243A1 (VEGA THERAPEUTICS, published 2023):

T1: recombinant heavy chain Protein S (human, UniProt P07225 42-296)
T1 construct: Fragment of Protein S spanning amino acids 42-296, expressed and purified from HEK293 cells; also called Protein S heavy chain; heavy chain of Protein S
T1 sequence: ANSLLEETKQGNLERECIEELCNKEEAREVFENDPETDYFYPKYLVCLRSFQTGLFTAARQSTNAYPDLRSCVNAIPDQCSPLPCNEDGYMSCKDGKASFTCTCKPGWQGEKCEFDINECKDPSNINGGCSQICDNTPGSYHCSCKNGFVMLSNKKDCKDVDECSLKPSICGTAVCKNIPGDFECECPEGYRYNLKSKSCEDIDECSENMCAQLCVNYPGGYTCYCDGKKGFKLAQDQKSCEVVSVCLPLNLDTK

T2: human Protein S (human, UniProt P07225 42-676)
T2 construct: also called ProS; ProS1
T2 sequence: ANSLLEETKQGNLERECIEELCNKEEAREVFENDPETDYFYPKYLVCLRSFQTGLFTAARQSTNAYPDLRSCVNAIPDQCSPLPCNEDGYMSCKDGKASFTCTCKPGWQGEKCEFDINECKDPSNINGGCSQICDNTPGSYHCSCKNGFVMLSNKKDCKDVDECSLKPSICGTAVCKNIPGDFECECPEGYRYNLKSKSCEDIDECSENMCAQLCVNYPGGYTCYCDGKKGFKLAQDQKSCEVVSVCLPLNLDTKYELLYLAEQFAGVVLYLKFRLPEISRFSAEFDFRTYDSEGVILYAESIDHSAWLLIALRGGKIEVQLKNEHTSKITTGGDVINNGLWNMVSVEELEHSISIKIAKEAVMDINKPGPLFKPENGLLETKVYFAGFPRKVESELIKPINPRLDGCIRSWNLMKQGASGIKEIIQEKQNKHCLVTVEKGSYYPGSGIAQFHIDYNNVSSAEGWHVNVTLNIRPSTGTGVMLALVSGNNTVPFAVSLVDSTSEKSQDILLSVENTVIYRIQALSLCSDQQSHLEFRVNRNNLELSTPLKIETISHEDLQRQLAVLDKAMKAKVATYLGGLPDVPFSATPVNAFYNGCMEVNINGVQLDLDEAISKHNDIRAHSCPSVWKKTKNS


Tests used:
[1] = biological target: T1, recombinant heavy chain Protein S; assay: ELISA; plate coated with recombinant Protein S heavy chain; 1 mM CaCl2
Procedure: (§1) Binding to the heavy chain of Protein S was determined using an ELISA based method. Briefly, high binding ELISA plates were coated with recombinant heavy chain Protein S expressed and purified from HEK293 cells. The “heavy chain” of Protein S represents a fragment of Protein S spanning amino acids 42-296. The coated plate was blocked with 1% casein solution. Then, buffer containing […] of antibody was applied to the well with buffer containing 1 mM calcium chloride.

human Protein S [2] = biological target: T2, human Protein S; assay: ELISA; plate coated with human Protein S; 1 µg/ml antibody; 1 mM EDTA
Procedure: (§2) Calcium dependence of binding was determined using an ELISA based method. Briefly, high binding ELISA plates were coated with human Protein S. Then, buffer containing 1 μg/ml of antibody was applied to the well with either buffer containing 1 mM EDTA or 1 mM calcium chloride.

human Protein S [3] = biological target: T2, human Protein S; assay: ELISA; plate coated with human Protein S; 1 µg/ml antibody; 1 mM calcium chloride
Procedure: as §2

human Protein S [4] = biological target: T2, human Protein S; assay: cell-based or functional assay
[5] = biological target: T1, recombinant heavy chain Protein S; assay: ELISA on recombinant Protein S heavy chain
Procedure: as §1

Binding to heavy chain (OD) [1] [OD]	Binding to Protein S in EDTA (OD) (human Protein S [2])	Binding to Protein S in CaCl2 (OD) (human Protein S [3])	IC50 APC (human Protein S [4]) [nM]	binding result [5]	IC50 TFPI (human Protein S [4]) [nM]	Binder
0.48	0.89	1.17	492	–	–	Antibody 44 (antibody, V domains shown, Human variable region with rat Fc) VH: QVQLVQSGAEVKKPGASVKVSCKASGYTFTSYYIHWVRQAPGQGLEWMGVTSPSGRSTSFAQKFQGRVTMTRDTSTSAVYMDLDSLRSEDTAVYYCARGGVTIHLERRGYFDYWGQGTLVIVSS VL: not shown
0.16	0.06	0.51	95.8	no binding	–	Antibody 34 (antibody, V domains shown) VH: QVQLQQSGTELVRPGTSVKMSCKAAGYTFTNHWIGWVKQRPGHGLEWIGDIYPGGGYTNYNEKFKGKASLTADTSSTTAYMQLSSLTSEDSAIYYCSRFGDQNWAWFAYWGQGTLVTVSA VL: DIQMNQSPSSLSASLGDTITITCRASQNIHMWLSWYQQKPGNIPKLLIFKTSNLHTGVPSRFSGSGSGTDFTLTISSLQPEDIATYYCLQGQSYPFTFGGGTKLEIK
0.13	0.63	1.03	99	no binding	–	Antibody 31 (antibody, V domains shown, Human variable region with rat Fc) VH: QVQLQESGPGLVKPSETLSLTCTVSGGSISGNYWSWIRQPPGKGLEWIGYIYYSGSTNYNPSLKSRVTISVDTSKNQFSLKLSSVTAADTAVYYCARDLDYFTWGAYSDWYFDLWGRGTLVTVSS VL: DIQMTQSPSSLSASVGDRVTITCRASQSISTFLNWYQQKPGKAPKLLIYATSSLRSGVPSRFSGSGSGTDFTLTISSLQPEDFAIYYCQQSYSTPRTFGQGTQVEIK
0.1	0.26	0.57	–	no binding	< 4.4	Antibody 23 (antibody, V domains shown, Human variable region with rat Fc) VH: QVQLVQSGAEVKKPGASVKVSCKSSGHTFTGYYMHWVRQAPGQGLEWMGWINPNSGDTNYAQKFQGRVTMTRDTSISTAYMEMSRLRSDDTAVYYCARDSQILWFGELGYWGQGTLVTVSS VL: QAVVTQESALTTSPGETVTLTCRSSTGAVTASNYANWVQEKPDHLFTGLIGSTNNRAPGVPARFSGSLIGDKAALTITGAQTEDEAIYFCALWYSDHFVFGGGTKLTVL
0.11	0.2	1.23	58.1	no binding	34	Antibody 33 (antibody, V domains shown, Human variable region with rat Fc) VH: QVQLQQSGPGLVKPSQTLSLTCAISGDSVSNNNAAWNWIRQSPSRGLEWLGGTYYRSKWYNDYAVSVKSRIIINPVTSKNQFSLQLNSVTPEDTAVYYCARGSSWYRFFDYWGQGTLVTVSS VL: EIVLTQSPGTLSLSPGERATLSCRASQSVGSSYLAWYQQKPGQAPRLLISGASGRATGIPDRFSGSGSGTDFTLTISRLEPEDFTVYYCQQYGSSPYTFGQGTKLEIK

Further lines, the binder ahead of its results:

Binder	Binding to heavy chain (OD) [1] [OD]	Binding to Protein S in EDTA (OD) (human Protein S [2])	Binding to Protein S in CaCl2 (OD) (human Protein S [3])	IC50 APC (human Protein S [4]) [nM]	binding result [5]	IC50 TFPI (human Protein S [4]) [nM]
Antibody 13 (antibody, V domains shown, Human variable region with rat Fc) VH: QVQLVQSGAEVKKPGSSVKVSCKVSGGTFSSYSISWVRQAPGQGLEWMGGIIPIFGTTNYAQKFQGRVTITADESTSTAYMDLSSLKSEDTAMYYCEGGRVGADFDYWGQGTLVTVSS VL: SSDLTQGPAVSVALGQTVRITCQGDSLRNYYASWYQQKPGQAPVPVIYGKNDRPSGIPDRFSGSISGNTASLTITGAQAEDEAHYYCNSRDSSGNHVVFGGGTKLTVL	1.63	0.48	1.77	5.3	–	51.1
Antibody 19 (antibody, V domains shown) VH: QLQLQESGPGLVKPSETLSLTCTVSGGSISSSSYYWGWIRQPPGKGLEWIGNIYYSGNTYYNPSLKSRVTISVDTSKNQFSLKLSSMTAADTAVYYCARCSGYGYSSGRSYFDYWGQETLVTVSS VL: not shown	0.61	0.06	1.68	81.2	–	105
Antibody 16 (antibody, V domains shown, Human variable region with rat Fc) VH: QVQLVESGGGVVQPGRSLRLSCAASGFTFSTYGFHWVRQPPGKGLEWVAVIYYDGINKYYADSVKGRFTISRDNSKNTLFLQMNSLRAEDTAVYYCAESDLDYWGQGTLVTVSS VL: EIVLTQSPATLSLSPGERATLSCRASQSVSIYLAWYQQKPGQAPRLLIYDASNRATGIPARFSGSGSGTDFTLTISSLEPEDFAVYYCQQRSNWPLTFGPGTKVDIK	1.67	0.17	1.95	14	–	46.3
Antibody 20 (antibody, V domains shown, Human variable region with rat Fc) VH: QVQLQESGPGLVKPSETLSLTCAVSGYSISSGYYWGWIRQPPGKGLDWIGSIYYSGSTYYNPSLKSRVTISVDTSKNQISLKLSSVTAADTAVYYCATTYSDIVTGYYNDAFDIWGQGTMVTVSS VL: EIVMTQSPATLSVSPGERATLSCRASQRINSNLAWYQQKPGQAPRLLIYGASTRATGIPARFSGSGSGTEFTLTISSLQSEDFAAYYCQQYDNWPLTFGGGTKVEIK	1.54	0.26	1.93	12.8	–	–
Antibody 18 (antibody, V domains shown, Human variable region with rat Fc) VH: QVQLQESGPGLVKPSETLSLTCTVSGGSISNYYWNWIRQPPGKGLEWIGYIYYIGITDYNPSLKSRVTISVDTSKNQFSLKVTSVTAADTAVYYCAALSGDHAFDIWGQGTLVTVSS VL: not shown	0.6	0.1	1.96	12.8	–	–
Antibody 24 (antibody, V domains shown, Human variable region with rat Fc) VH: QVQLQESGPGLVKPSETLSLTCGVSGGSISSTNWWSWVRQPPGKGLEWIGEIYQTGSTDYDPSLKSRVTISIDKSKNQFSLKLYSVTAADTAVYYCARRFGELDYWGQGTLVTVSS VL: EIVMTQSPATLSVSPGERATLSCRASQSVTSNLAWYQQKPGQAPRLLIYDASTRATGIPARFSGSGSGTEFTLTISSLQSEDFAIYYCQQYNNWPTFGQGTRLEIK	0.71	0.06	1.72	17.9	–	73.6
Antibody 14 (antibody, V domains shown, Human variable region with rat Fc) VH: QVQLQESGPGLVKPSQTLSLTCTVSGGSITSDGYHWSWIRQYPGKGLDWIGYIYYTGNTYYNPSLKSRVTISVGTSQNQFSLKLISVTAADTAVYYCARRLSTGPYFDYWGQGTLVTVSS VL: QSALTQPASVSGSPGQSITISCTGTSSDVGGYEFVSWYQHHPGKAPKLMIYDVSSRPSGVSNRFSGSKSGNTASLTISGLQAEDEADYYCSSYTRSSTVVFGGGARLTVL	2.03	0.75	2.03	8.76	–	73.3
Antibody 21 (antibody, V domains shown, Human variable region with rat Fc) VH: QVQLVQSGAEVKKPGSSVKVSCKASGDTFSNHAINWVRQAPGQGLEWMGGYIPIFGTTNSAQKFRGRVTITADKSTNTAYMALSSLRSEDTAVYYCARGGLAGSHYKNYYYDGMDVWGQGTTVTVSS VL: not shown	1.58	1.4	1.92	6.23	–	–
Antibody 15 (antibody, V domains shown, Human variable region with rat Fc) VH: EVQLVESGGGLVQPGRSLRLSCAASGFTFDDYAMHWVRQAPGKGLEWVSGITWNSGNIGYADSVKGRFTISRDNAKNSLYLHMNSLRIEDTAFYYCAKGRAVSDTFDIWGQGTMVTVSS VL: SYELNQPPSVSVSPGQTASITCSGDKLGDKYASWYQQKPGQSPVVAIYQNSKRPSGIPERFSASNSGNTATLTISGTQALDEADYYCQAWDSSTWVFGGGTKLTVL	1.78	0.07	1.86	13.5	–	77.3
